The values below come from patent US20190276549A1.

Read-outs that look alike come from different tables or passages of the source.

In assay [1] the target is C1q (human) (UniProt P02745). As to the kind of experiment: cell-based or functional assay.
The target of assay [2] is C1q (human) (UniProt P02745). As to the kind of experiment: cell-based or functional assay. The source holds these as a separate data set.
Assay [3] has as its target CD52 (human) (UniProt P31358). As to the kind of experiment: QIFIKIT indirect immunofluorescence, flow cytometry, 10 µg/mL antibody, Daudi cells.
The target of assay [4] is CD52 (human) (UniProt P31358). In words: QIFIKIT indirect immunofluorescence, flow cytometry, 10 µg/mL antibody, Raji cells. (Flow cytometry measures light scatter and fluorescence of single cells or particles in a stream.)
Assay [5] addresses CD52 (human) (UniProt P31358). In words: QIFIKIT indirect immunofluorescence, flow cytometry, 10 µg/mL antibody, REH cells.
Assay [6] deals with CD52 (human) (UniProt P31358). As to the kind of experiment: QIFIKIT indirect immunofluorescence, flow cytometry, 10 µg/mL antibody, Wien 133 cells.
Assay [7] deals with CD52 (human) (UniProt P31358). As to the kind of experiment: QIFIKIT indirect immunofluorescence, flow cytometry, 10 µg/mL antibody, U-698-M cells.
Assay [8] has as its target CD52 (human) (UniProt P31358). As to the kind of experiment: QIFIKIT indirect immunofluorescence, flow cytometry, 10 µg/mL antibody, U-266B1 cells.
Assay [9] has as its target CD52 (human) (UniProt P31358). As to the kind of experiment: QIFIKIT indirect immunofluorescence, flow cytometry, 10 µg/mL antibody, Ramos cells.

Chain of UniProt P02745 (P02745 23-245 limits assumed, chain 1 of 3): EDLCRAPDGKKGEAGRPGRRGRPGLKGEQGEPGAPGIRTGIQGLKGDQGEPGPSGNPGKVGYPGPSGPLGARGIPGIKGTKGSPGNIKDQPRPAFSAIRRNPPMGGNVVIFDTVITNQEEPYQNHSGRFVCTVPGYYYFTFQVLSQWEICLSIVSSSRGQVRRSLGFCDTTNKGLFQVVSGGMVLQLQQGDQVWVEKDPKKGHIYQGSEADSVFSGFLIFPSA
Chain of UniProt P02745 (P02746 28-253 limits assumed, chain 2 of 3, further chain): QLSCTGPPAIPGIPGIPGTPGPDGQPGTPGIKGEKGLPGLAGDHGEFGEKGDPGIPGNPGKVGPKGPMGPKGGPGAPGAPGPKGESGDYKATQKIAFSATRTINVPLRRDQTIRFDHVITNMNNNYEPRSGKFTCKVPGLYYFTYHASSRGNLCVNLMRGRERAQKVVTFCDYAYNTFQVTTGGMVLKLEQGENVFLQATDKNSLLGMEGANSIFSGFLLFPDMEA
Chain of UniProt P02745 (P02747 29-245 limits assumed, chain 3 of 3, further chain): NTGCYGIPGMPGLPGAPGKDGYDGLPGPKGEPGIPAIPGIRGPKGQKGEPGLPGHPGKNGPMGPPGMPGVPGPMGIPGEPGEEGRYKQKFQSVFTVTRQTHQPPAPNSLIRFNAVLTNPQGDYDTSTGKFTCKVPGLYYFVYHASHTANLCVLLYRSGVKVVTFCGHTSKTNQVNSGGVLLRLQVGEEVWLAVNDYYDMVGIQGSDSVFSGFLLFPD

Turning to IgG1-005-AA-E430G (antibody), the CDC on Daudi cells, 20% NHS: EC50 with C1q (human) [1] amounted to 0.06 µg/mL.

With IgG1-005-E430G (antibody), the figures for the CDC on Daudi cells, 20% NHS: EC50 in the assay with C1q (human) [1] and with C1q (human) [2] were 0.01 µg/mL and 0.005 µg/mL, respectively.

In the assay with C1q (human) [2], IgG1-005-D270R/E430G (antibody) displayed a CDC on Daudi cells, 20% NHS: EC50 of 0.15 µg/mL.

In turn, IgG1-005-E345R (antibody) came in with a CDC on Daudi cells, 20% NHS: EC50 with C1q (human) [1] of 0.01 µg/mL.

In the assay with C1q (human) [2], “IgG1-Campath variant E345R with the K322E mutation (antibody)” gave a CDC on Wien 133 cells, 20% NHS: area under the dose response curve, IgG1-Campath = 100% of 60%.

On to IgG1-Campath-E345K (antibody), for which, in the assay with C1q (human) [2], the CDC on Wien 133 cells, 20% NHS: area under the dose response curve relative to IgG1-Campath stood at 2.4 fold and the CDC on Wien 133 cells, 20% NHS: area under the dose response curve, IgG1-Campath = 100% is 240%.

With IgG1-Campath (antibody), the antibody binding capacity (Molecules/cell) (molecules/cell) turned out to be 7280 with CD52 (human) [3]; 85500 with CD52 (human) [4]; 135000 with CD52 (human) [5]; 332000 in the assay with CD52 (human) [6]; 93700 in the assay with CD52 (human) [7]; 1.46e+06 in the assay with CD52 (human) [8]. The substance further registered an antibody binding capacity (Molecules/cell) (molecules/cell) in the assay with CD52 (human) [9] of 179000.

In the assay with C1q (human) [1], IgG1-005-AA-E345R (antibody) showed a CDC on Daudi cells, 20% NHS: EC50 of 0.14 µg/mL and a CDC on Daudi cells, 20% NHS: maximal kill of 74.3%.
